Assays:
Test in all cases: cell-based or functional assay
[1] = molecular target: C-terminal domain of G1 cloned directly to Trx whose first amino acid is Phe (E. coli)
[2] = molecular target: C-terminal domain of G1 cloned directly to Trx whose first amino acid is Met (E. coli)
[3] = molecular target: C-terminal domain of G1 cloned directly to Trx whose first amino acid is His (E. coli)
[4] = molecular target: C-terminal domain of G1 cloned directly to Trx whose first amino acid is Thr (E. coli)
[5] = molecular target: C-terminal domain of G1 cloned directly to Trx whose first amino acid is Cys (E. coli)
[6] = molecular target: C-terminal domain of G1 cloned directly to Trx whose first amino acid is Trp (E. coli)
[7] = molecular target: C-terminal domain of G1 cloned directly to Trx whose first amino acid is Gln (E. coli)
[8] = molecular target: C-terminal domain of G1 cloned directly to Trx whose first amino acid is Leu (E. coli)
[9] = molecular target: C-terminal domain of G1 cloned directly to Trx whose first amino acid is Val (E. coli)
[10] = molecular target: C-terminal domain of G1 cloned directly to Trx whose first amino acid is Asn (E. coli)
[11] = molecular target: C-terminal domain of G1 cloned directly to Trx whose first amino acid is Ile (E. coli)
[12] = molecular target: C-terminal domain of G1 cloned directly to Trx whose first amino acid is Tyr (E. coli)
[13] = molecular target: C-terminal domain of G1 cloned directly to Trx whose first amino acid is Gly (E. coli)
[14] = molecular target: C-terminal domain of G1 cloned directly to Trx whose first amino acid is Lys (E. coli)
[15] = molecular target: C-terminal domain of G1 cloned directly to Trx whose first amino acid is Pro (E. coli)
[16] = molecular target: C-terminal domain of G1 cloned directly to Trx whose first amino acid is Ser (E. coli)
[17] = molecular target: C-terminal domain of G1 cloned directly to Trx whose first amino acid is Asp (E. coli)
[18] = molecular target: C-terminal domain of G1 cloned directly to Trx whose first amino acid is Arg (E. coli)
[19] = molecular target: C-terminal domain of G1 cloned directly to Trx whose first amino acid is Glu (E. coli)
[20] = molecular target: C-terminal domain of G1 cloned directly to Trx whose first amino acid is Ala (E. coli)

B1: G1^N(C1A): StreptagII-gpD-linker[N-extein]-Gp41.1^N(C1A)-GGHHHHHH fusion protein (protein)
chain: MASWSHPQFEKASKETFTHYQPQGNSDPAHTATAPGGLSAKAPAMTPLMLDTSSRKLVAWDGTTDGAAVGILAVAADQTSTTLTFYKSGTFRYEDVLWPEAASDETKKRTAFAGTAISIVGSTRSGYALDLKTQVQTPQGMKEISNIQVGDLVLSNTGYNEVLNVFPKSKKKSYKITLEDGKEIICSEEHLFPTQTGEMNISGGLKEGMCLYVKEGGHHHHHH
C-terminal Cleavage Yield (%) [1]: 72.6% | C-terminal Cleavage k [1]: 0.000307 s⁻¹ | C-terminal Cleavage t(½) [1]: 37.7 min | C-terminal Cleavage Yield (%) [2]: 85.6% | C-terminal Cleavage k [2]: 0.00087 s⁻¹ | C-terminal Cleavage t(½) [2]: 13.3 min | C-terminal Cleavage Yield (%) [3]: 71.1% | C-terminal Cleavage k [3]: 0.000447 s⁻¹ | C-terminal Cleavage t(½) [3]: 25.9 min | C-terminal Cleavage Yield (%) [4]: 87.5% | C-terminal Cleavage k [4]: 0.000573 s⁻¹ | C-terminal Cleavage t(½) [4]: 20.1 min | C-terminal Cleavage Yield (%) [5]: 83.6% | C-terminal Cleavage k [5]: 0.000683 s⁻¹ | C-terminal Cleavage t(½) [5]: 16.9 min | C-terminal Cleavage Yield (%) [6]: 94.1% | C-terminal Cleavage k [6]: 0.00028 s⁻¹ | C-terminal Cleavage t(½) [6]: 41.3 min | C-terminal Cleavage Yield (%) [7]: 88.8% | C-terminal Cleavage k [7]: 0.00047 s⁻¹ | C-terminal Cleavage t(½) [7]: 24.6 min | C-terminal Cleavage Yield (%) [8]: 69.3% | C-terminal Cleavage k [8]: 0.000273 s⁻¹ | C-terminal Cleavage t(½) [8]: 42.3 min | C-terminal Cleavage Yield (%) [9]: 86.7% | C-terminal Cleavage k [9]: 0.000273 s⁻¹ | C-terminal Cleavage t(½) [9]: 42.3 min | C-terminal Cleavage Yield (%) [10]: 71.2% | C-terminal Cleavage k [10]: 0.000287 s⁻¹ | C-terminal Cleavage t(½) [10]: 40.3 min | C-terminal Cleavage Yield (%) [11]: 88.4% | C-terminal Cleavage k [11]: 0.000173 s⁻¹ | C-terminal Cleavage t(½) [11]: 66.7 min | C-terminal Cleavage Yield (%) [12]: 91.3% | C-terminal Cleavage k [12]: 0.00033 s⁻¹ | C-terminal Cleavage t(½) [12]: 35 min | C-terminal Cleavage Yield (%) [13]: 75.2% | C-terminal Cleavage k [13]: 0.000137 s⁻¹ | C-terminal Cleavage t(½) [13]: 84.5 min | C-terminal Cleavage Yield (%) [14]: 86.7% | C-terminal Cleavage k [14]: 0.00051 s⁻¹ | C-terminal Cleavage t(½) [14]: 22.6 min | C-terminal Cleavage Yield (%) [15]: 57.8% | C-terminal Cleavage k [15]: 6e-05 s⁻¹ | C-terminal Cleavage t(½) [15]: 193 min | C-terminal Cleavage Yield (%) [16]: 89.4% | C-terminal Cleavage k [16]: 0.000483 s⁻¹ | C-terminal Cleavage t(½) [16]: 23.9 min | C-terminal Cleavage Yield (%) [17]: 68.6% | C-terminal Cleavage k [17]: 0.000247 s⁻¹ | C-terminal Cleavage t(½) [17]: 46.8 min | C-terminal Cleavage Yield (%) [18]: 87.3% | C-terminal Cleavage k [18]: 0.00051 s⁻¹ | C-terminal Cleavage t(½) [18]: 22.6 min | C-terminal Cleavage Yield (%) [19]: 86.2% | C-terminal Cleavage k [19]: 0.000127 s⁻¹ | C-terminal Cleavage t(½) [19]: 91.2 min | C-terminal Cleavage Yield (%) [20]: 75.8% | C-terminal Cleavage k [20]: 0.000357 s⁻¹ | C-terminal Cleavage t(½) [20]: 32.4 min

Reference: patent US20150232507A1
